Molecular target: 6xHis-N-WASP (UniProt O00401)
UniProt O00401, sequence (O00401 whole entry): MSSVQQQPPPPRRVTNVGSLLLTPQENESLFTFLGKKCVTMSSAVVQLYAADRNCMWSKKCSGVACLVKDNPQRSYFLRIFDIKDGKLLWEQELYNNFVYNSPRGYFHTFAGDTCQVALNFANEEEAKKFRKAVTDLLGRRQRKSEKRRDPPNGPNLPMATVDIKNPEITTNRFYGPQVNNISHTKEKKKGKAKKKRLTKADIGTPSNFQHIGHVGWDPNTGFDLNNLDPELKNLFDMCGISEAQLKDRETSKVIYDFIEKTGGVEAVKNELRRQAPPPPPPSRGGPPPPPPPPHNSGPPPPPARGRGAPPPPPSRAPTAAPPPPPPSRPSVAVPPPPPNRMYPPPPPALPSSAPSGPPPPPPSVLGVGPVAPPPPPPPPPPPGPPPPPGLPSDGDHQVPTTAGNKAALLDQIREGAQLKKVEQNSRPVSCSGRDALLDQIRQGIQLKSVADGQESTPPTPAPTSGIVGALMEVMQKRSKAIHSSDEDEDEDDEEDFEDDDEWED

Substance: purified native MirA (natural protein)
- pyrene actin (1 µM, 10% labeled) polymerization with Arp2/3 complex (50 nM), N-WASP (200 nM) and increasing MirA; MirA concentration for half-maximum activity (time to half-maximum fluorescence): 60 nM

Reference: paper PMC9232537
